# Test results: publication PMC10692919
# Target: BMPs (in the Hep3B hepcidin bioassay)
binder,measurement,value
"Full-length ERFE ΔCollagen, 43-354 del109-125, FLAG-tagged (natural protein) EPPPGNELPRGPGESRAGPAARPPEPTAERAHSVDPRDAWMLFVRQSDKGVNGKKRSRGKAKKLKFIIPPEALLKEFQLLLKGAVRQRERAEPEPCTCGPAGPVAASLAPVSATAGEDDDDVVGDVLALLAAPLAPGPRAPRVEAAFLCRLRRDALVERRALHELGVYYLPDAEGAFRRGPGLNLTSGQYRAPVAGFYALAATLHVALGEPPRRGPPRPRDHLRLLICIQSRCQRNASLEAIMGLESSSELFTISVNGVLYLQMGQWTSVFLDNASGCSLTVRSGSHFSAVLLGV",IC50 of suppression of hepcidin mRNA (qPCR) in Hep3B cells,10 nM
